Molecular target: AGT of all performed ITC measurements (wild type and AGT mutants of Table S1)
Experiment: ITC; 25–46 µM AGT as sample in the cell, 250–460 µM Pex5p(C) as titration ligand, 27 injections of 10 µl; 25°C; 100 mM HEPES pH 7.5, 150 mM NaCl, 2 mM ß-mercaptoethanol

stoichiometry N: 1.02
Substance: C-terminal cargo-binding segment of human Pex5p (residues 315-639) (from UniProt P50542 315-639) (domain or fragment)

From paper PMC3328432, “Molecular Requirements for Peroxisomal Targeting of Alanine-Glyoxylate Aminotransferase as an Essential Determinant in Primary Hyperoxaluria Type 1” (PLoS Biology, 2012)
